Laboratory results taken from publication PMC3553973.

Target: T1, SacUVDE (UV damage endonuclease) (Sulfolobus acidocaldarius, UniProt Q4J9T1 1-289)
T1 sequence: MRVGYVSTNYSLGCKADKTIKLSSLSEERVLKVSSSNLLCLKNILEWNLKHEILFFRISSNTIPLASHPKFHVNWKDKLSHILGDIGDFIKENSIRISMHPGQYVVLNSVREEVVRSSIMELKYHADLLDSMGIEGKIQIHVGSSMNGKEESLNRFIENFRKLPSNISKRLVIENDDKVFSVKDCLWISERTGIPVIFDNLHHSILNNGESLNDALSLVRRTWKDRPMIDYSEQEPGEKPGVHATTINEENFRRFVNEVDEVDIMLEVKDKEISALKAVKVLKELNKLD
Experiment: X-ray crystallography

B1: 15-mer duplex with 6-4 photoproduct (dsDNA)
DNA 1: GCGTCCTTGACGACG
DNA 2: CGTCGTCAAGGACGC
modifications: 6-4 photoproduct at T7-T8 of strand 1
binding result: binds
